Laboratory results from patent WO2020228604A1 (dated 2020).

T1: human TROP-2 protein with His tag (TROP-2-His) (human, UniProt P09758 27-274)
T1 construct: Bought reagent (Sino Biological 10428-H08H); also called TROP-2His protein; human TROP-2 His antigen; not shown: His tag
T1 sequence (looked up): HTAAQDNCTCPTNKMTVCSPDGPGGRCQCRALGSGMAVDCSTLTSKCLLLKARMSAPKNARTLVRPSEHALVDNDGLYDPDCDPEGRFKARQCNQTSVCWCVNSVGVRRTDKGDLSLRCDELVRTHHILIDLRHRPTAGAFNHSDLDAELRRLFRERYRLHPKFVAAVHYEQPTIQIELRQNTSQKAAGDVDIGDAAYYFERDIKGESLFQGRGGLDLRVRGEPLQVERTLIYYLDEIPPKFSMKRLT


Assays:
[1] = molecular target: T1, human TROP-2 protein with His tag …; experiment: competition ELISA; competitor: coated hRS7; test antibody diluted to 100 ug/ml and added with TROP-2-His
[2] = molecular target: T1, human TROP-2 protein with His tag …; experiment: indirect ELISA, TROP-2-His coated at 1 ug/ml

inhibition rate [1] [%]	EC50 [2] [nM]	Binder
6.7	–	humanized anti-TROP-2 antibody HU6 (antibody, V domains shown) VH: EVQLLESGGGLVQPGGSLRLSCAASGFTVSNYWMNWVRQAPGKGLEWMGRIDPNDSETHYNQKFKDRVTISVDKSKNQFSLKLSSVTAADTAVYYCARSGFGSTYWFFDVWGQGTTVTVSS VL: DVVMTQSPLSLPVTLGQPASISCKASQDVSTAVAWYQQKPGKAPKLFIYSASYRYTGVPSRFSGSGSGTDFTLTISSLQPEDFATYYCQQHYSTPLTFGQGTRLEIK
5.9	–	humanized anti-TROP-2 antibody HU6DL (antibody, V domains shown) VH: EVQLLESGGGLVQPGGSLRLSCAASGFTVSNYWMNWVRQAPGKGLEWMGRIDPNDSETHYNQKFKDRVTISVDKSKNQFSLKLSSVTAADTAVYYCARSGFGSTYWFFDVWGQGTTVTVSS VL: DVVMTQSPLSLPVTLGQPASISCKASQDVSTAVAWYQQKPGKAPKLFIYSASYRYTGVPSRFSGSGSGTDFTLTISSLQPEDFATYYCQQHYSTPLTFGQGTRLEIK
–	0.56	murine monoclonal antibody M1 (antibody, V domains shown) VH: QVQLQQPGAELVRPGASVKLSCRASGYTFTNYWMNWVKQRPEQGLEWIGRIDPNDSETHYNQKFKDRAILTVDKASNTAYMQLSGLTSEDSAVHYCARSGFGSTYWFFDVWGAGTTVTVSS VL: DIVMTQSHKFMSTSVGDRVSITCKASQDVSTAVAWYQQKPGQSPKLLIYSASYRYTGVPDRFAGSGYGTDFTFTISSVQTEDLTVYHCQQHYSTPLTFGPGTRLELK
13.5	–	humanized anti-TROP-2 antibody HU1 (antibody, V domains shown) VH: QVQLVQSGAEVKKPGSSVKVSCKASGYTFTNYWMNWVRQAPGKGLEWVGRIDPNDSETHYNQKFKDRFTITRDNSKNTLYLQMNSLRAEDTAVYYCARSGFGSTYWFFDVWGQGTTVTVSS VL: AIRMTQSPFSLSASVGDRVTITCKASQDVSTAVAWYLQKPGQSPQLLIYSASYRYTRIPPRFSGSGYGTDFTLTINNIESEDAAYYFCQQHYSTPLTFGQGTRLEIK
10.2	–	humanized anti-TROP-2 antibody HU10 (antibody, V domains shown) VH: QVQLVQSGAEVKKPGSSVKVSCKASGYTFTNYWMNWVRQAPGKGLEWVGRIDPNDSETHYNQKFKDRFTITRDNSKNTLYLQMNSLRAEDTAVYYCARSGFGSTYWFFDVWGQGTTVTVSS VL: AIRMTQSPFSLSASVGDRVTITCKASQDVSTAVAWYLQKPGQSPQLLIYSASYRYTRIPPRFSGSGYGTDFTLTINNIESEDAAYYFCQQHYSTPLTFGQGTRLEIK
